Experimental data as given in the RNAGym collection of RNA variant scans (doi:10.1093/molbev/msab373).

B1: Azoarcus group I ribozyme (parent)
chain: GUGCCUUGCGCCGGGAAACCACGCAAGGGAUGGUGUCAAAUUCGGCGAAACCUAAGCGCCCGCCCGGGCGUAUGGCAACGCCGAGCCAAGCUUCGGCGCCUGCGCCGAUGAAGGUGUAGAGACUAGACGGCACCCACCUAAGGCAAACGCUAUGGUGAAGGCAUAGUCCAGGGAGUGGCGAAAGUCACACAAACCGG

Variants of: B1
Test: reverse-splicing fitness (ratio to wild type); higher = more active; in vitro selection; Mg2+ level not given
How it was run: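 An in vitro group I ribozyme library with randomized positions was T7-transcribed and gel-purified. In triplicate, 10 pmol RNA in EPPS pH 7.5 was reacted with 50 pmoles of a 30-nt RNA substrate for 1 h at 37 °C across several added MgCl2 levels (1–48 mM), then stopped with EDTA. Products were reverse transcribed from a substrate-complementary primer, PCR-amplified and sequenced (HiSeq 4000). Fitness is a variant's read proportion after selection over that before, normalised to wild type.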

Point of comparison: C82A A111U A120U C150A C169G U176G, reverse-splicing fitness 0.00222. Against it:
- C82A A111U A120U A145C C150A C169A U176G — higher, 0.00263
- C82A A111U A120U A145C C150A C169A U176C — higher, 0.00299
- C82A A111U A120U A145C C150A C169A U176A — higher, 0.00272
- C82A A111U A120U A145G C169U — higher, 0.00488
- C82A A111U A120U A145G C169A — higher, 0.0037
- C82A A111U A120U A145G C169G — higher, 0.00467
- C82A A111U A120U A145U C150U C169G U176C — higher, 0.00351
- C82A A111U A120U A145U C150U C169G U176A — higher, 0.00409
- C82A A111U A120U A145U C150U C169G U176G — higher, 0.00224
- C82A A111U A145C C150A C169G U176G — higher, 0.00831
- C82A A111U A145C C150A C169G U176A — higher, 0.029
- C82A A111U A145C C150A C169G U176C — higher, 0.0169
- C82A A111U A120U C150G C169G U176C — higher, 0.00289
- C82A A111U A120U C150G C169G U176G — higher, 0.00289
- C82A A111U A120U C150G C169G U176A — higher, 0.00475
- C82A A111U A145C C150G U176C — higher, 0.0163
- C82A A111U A145C C150G U176A — higher, 0.0104
- C82A A111U A145C C150G U176G — higher, 0.00428
- C82A A111U A120U A145C C150G U176A — higher, 0.00326
- C82A A111U A120U A145C C150G U176G — higher, 0.00265
- C82A A111U A120U A145C C150G U176C — higher, 0.00415
- C82A A111U A120U A145C C150U — higher, 0.00779
- C82A A111U A120U A145C C150G — higher, 0.0059
- C82A A111U A120U C150G U176G — higher, 0.00265
- C82A A111U A120U C150G U176A — higher, 0.00499
- C82A A111U A120U C150G U176C — higher, 0.00606
- C82A A111U A120U C150A C169G U176C — higher, 0.00511
- C82A A111U A120U C150A C169G U176A — higher, 0.00956
- C82A A111U A120U A145G C150U C169A U176G — higher, 0.00259
- C82A A111U A120U A145G C150U C169A U176A — higher, 0.00815
- C82A A111U A120U A145G C150U C169A U176C — higher, 0.00423
- C82A A111U A145C C169U — higher, 0.0123
- C82A A111U A145C C169A — higher, 0.00733
- C82A A111U A145C C169G — higher, 0.00993
- C82A A111U A120U A145G — higher, 0.0209
- C82A A111U A120U A145U — higher, 0.0216
- C82A A111U A120U C150U C169G U176C — higher, 0.00496
- C82A A111U A120U C150U C169G U176G — higher, 0.00271
- C82A A111U A120U C150U C169G U176A — higher, 0.00965
- C82A A111U A120U A145U C150A C169A U176A — higher, 0.00303
- C82A A111U A120U A145U C150A C169A U176C — higher, 0.00269
- C82A A111U A120U A145U C150A C169A U176G — lower, 0.00212
- C82A A111U A120U C150U C169A U176A — higher, 0.00575
- C82A A111U A120U C150U C169A U176C — higher, 0.00344
- C82A A111U A120U C150U C169A U176G — higher, 0.00226
- C82A A111U A120U A145G C150G C169A — higher, 0.00923
- C82A A111U A120U A145G C150G C169U — higher, 0.00854
- C82A A111U A120U A145G C150G C169G — higher, 0.00757
- C82A A111U A145C C150A U176G — higher, 0.00842
- C82A A111U A145C C150A U176A — higher, 0.0125
- C82A A111U A145C C150A U176C — higher, 0.0157
- C82A A111U A120U A145U C169U U176C — higher, 0.00325
- C82A A111U A120U A145U C169U U176G — lower, 0.00208
- C82A A111U A120U A145U C169U U176A — higher, 0.00289
- C82A A111U A120U A145G C169U U176A — higher, 0.00414
- C82A A111U A120U A145G C169U U176G — lower, 0.00182
- C82A A111U A120U A145G C169U U176C — higher, 0.00428
- C82A A111U A120U A145U C169U — higher, 0.0039
- C82A A111U A120U A145U C169A — higher, 0.00249
- C82A A111U A120U A145U C169G — higher, 0.00304
- C82A A111U A120U A145U C169G U176A — higher, 0.00291
- C82A A111U A120U A145U C169G U176G — lower, 0.00199
- C82A A111U A120U A145U C169G U176C — higher, 0.00323
- C82A A111U A120U A145U C150G C169G U176C — higher, 0.00281
- C82A A111U A120U A145U C150G C169G U176G — higher, 0.00241
- C82A A111U A120U A145U C150G C169G U176A — higher, 0.00327
- C82A A111U A120U A145G C150U C169G U176C — higher, 0.00667
- C82A A111U A120U A145G C150U C169G U176G — higher, 0.00271
- C82A A111U A120U A145G C150U C169G U176A — higher, 0.00984
- C82A A111U A120U A145C C169U U176A — higher, 0.00334
- C82A A111U A120U A145C C169U U176G — lower, 0.00193
- C82A A111U A120U A145C C169U U176C — higher, 0.0036
- C82A A111U A120U C150G C169A — higher, 0.00872
- C82A A111U A120U C150G C169G — higher, 0.00683
- C82A A111U A120U C150G C169U — higher, 0.00659
- C82A A111U A120U A145C C150G C169G U176A — higher, 0.00351
- C82A A111U A120U A145C C150G C169G U176C — higher, 0.0024
- C82A A111U A120U A145C C150G C169G U176G — higher, 0.00242
- C82A A111U A120U A145G C150A C169A U176G — higher, 0.00392
- C82A A111U A120U A145G C150A C169A U176A — higher, 0.0108
- C82A A111U A120U A145G C150A C169A U176C — higher, 0.00627
- C82A A111U A145C C169A U176C — higher, 0.00816
